B1: PDLIM7 (parent)
chain: AAGGVPGGGSNNGKTPVCHQCHKV
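Further: lentivirally expressed fusions sorted by FACS into six bins by GFP to DsRed ratio, PSI derived from sequencing read proportions per bin multiplied by bin number.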

Variants of: B1
Assay: protein stability index of a GFP-peptide fusion (GPS, HEK-293T) (PSI 1-6); higher = more stable
Details: c terminus: a fixed tail appended
Variant ARGGVPGGGSNNGKTPVCHQCHKV [A2R] has a protein stability index of 3.33.
With ASGGVPGGGSNNGKTPVCHQCHKV [A2S] the protein stability index was 3.84.
For ATGGVPGGGSNNGKTPVCHQCHKV [A2T], the protein stability index was 3.08.
Work on AVGGVPGGGSNNGKTPVCHQCHKV [A2V] yielded a protein stability index of 3.97.
Work on AWGGVPGGGSNNGKTPVCHQCHKV [A2W] yielded a protein stability index of 3.88.
AYGGVPGGGSNNGKTPVCHQCHKV [A2Y] gave a protein stability index of 3.72.
In the case of AACGVPGGGSNNGKTPVCHQCHKV [G3C], the protein stability index is reported as 3.41.
AADGVPGGGSNNGKTPVCHQCHKV [G3D] showed a protein stability index of 4.08.
Work on AAFGVPGGGSNNGKTPVCHQCHKV [G3F] yielded a protein stability index of 3.31.
AAHGVPGGGSNNGKTPVCHQCHKV [G3H] gave a protein stability index of 4.17.
With AAIGVPGGGSNNGKTPVCHQCHKV [G3I] the protein stability index was 2.02.
Variant AAKGVPGGGSNNGKTPVCHQCHKV [G3K] has a protein stability index of 3.87.
Work on AANGVPGGGSNNGKTPVCHQCHKV [G3N] yielded a protein stability index of 3.14.
With AASGVPGGGSNNGKTPVCHQCHKV [G3S] the protein stability index was 3.42.
With AATGVPGGGSNNGKTPVCHQCHKV [G3T] the protein stability index was 3.3.
Variant AAYGVPGGGSNNGKTPVCHQCHKV [G3Y] has a protein stability index of 3.54.
For AAGGVCGGGSNNGKTPVCHQCHKV [P6C], the protein stability index was 3.05.
AAGGVEGGGSNNGKTPVCHQCHKV [P6E] showed a protein stability index of 4.88.
AAGGVFGGGSNNGKTPVCHQCHKV [P6F] gave a protein stability index of 2.85.
Work on AAGGVGGGGSNNGKTPVCHQCHKV [P6G] yielded a protein stability index of 2.19.
Work on AAGGVIGGGSNNGKTPVCHQCHKV [P6I] yielded a protein stability index of 2.57.
With AAGGVKGGGSNNGKTPVCHQCHKV [P6K] the protein stability index was 4.05.
Variant AAGGVLGGGSNNGKTPVCHQCHKV [P6L] has a protein stability index of 3.23.
With AAGGVMGGGSNNGKTPVCHQCHKV [P6M] the protein stability index was 4.35.
AAGGVNGGGSNNGKTPVCHQCHKV [P6N] gave a protein stability index of 3.46.
In the case of AAGGVQGGGSNNGKTPVCHQCHKV [P6Q], the protein stability index is reported as 3.42.
Work on AAGGVRGGGSNNGKTPVCHQCHKV [P6R] yielded a protein stability index of 3.73.
AAGGVVGGGSNNGKTPVCHQCHKV [P6V] gave a protein stability index of 3.04.
In the case of AAGGVWGGGSNNGKTPVCHQCHKV [P6W], the protein stability index is reported as 1.96.
With AAGGVYGGGSNNGKTPVCHQCHKV [P6Y] the protein stability index was 3.73.
Variant AAGGVPCGGSNNGKTPVCHQCHKV [G7C] has a protein stability index of 3.49.
Work on AAGGVPDGGSNNGKTPVCHQCHKV [G7D] yielded a protein stability index of 4.3.
AAGGVPEGGSNNGKTPVCHQCHKV [G7E] gave a protein stability index of 4.47.
With AAGGVPFGGSNNGKTPVCHQCHKV [G7F] the protein stability index was 2.9.
AAGGVPHGGSNNGKTPVCHQCHKV [G7H] gave a protein stability index of 3.68.
For AAGGVPIGGSNNGKTPVCHQCHKV [G7I], the protein stability index was 3.1.
AAGGVPKGGSNNGKTPVCHQCHKV [G7K] showed a protein stability index of 4.09.
For AAGGVPLGGSNNGKTPVCHQCHKV [G7L], the protein stability index was 3.47.
For AAGGVPMGGSNNGKTPVCHQCHKV [G7M], the protein stability index was 2.06.
In the case of AAGGVPNGGSNNGKTPVCHQCHKV [G7N], the protein stability index is reported as 4.05.
In the case of AAGGVPPGGSNNGKTPVCHQCHKV [G7P], the protein stability index is reported as 3.4.
In the case of AAGGVPQGGSNNGKTPVCHQCHKV [G7Q], the protein stability index is reported as 3.93.
AAGGVPRGGSNNGKTPVCHQCHKV [G7R] showed a protein stability index of 3.89.
Work on AAGGVPSGGSNNGKTPVCHQCHKV [G7S] yielded a protein stability index of 3.95.
AAGGVPTGGSNNGKTPVCHQCHKV [G7T] gave a protein stability index of 3.56.
With AAGGVPVGGSNNGKTPVCHQCHKV [G7V] the protein stability index was 3.53.
In the case of AAGGVPWGGSNNGKTPVCHQCHKV [G7W], the protein stability index is reported as 2.26.
AAGGVPYGGSNNGKTPVCHQCHKV [G7Y] gave a protein stability index of 3.4.
Work on AAGGVPGAGSNNGKTPVCHQCHKV [G8A] yielded a protein stability index of 3.58.
Variant AAGGVPGCGSNNGKTPVCHQCHKV [G8C] has a protein stability index of 3.12.
Variant AAGGVPGDGSNNGKTPVCHQCHKV [G8D] has a protein stability index of 4.5.
For AAGGVPGEGSNNGKTPVCHQCHKV [G8E], the protein stability index was 5.24.
With AAGGVPGFGSNNGKTPVCHQCHKV [G8F] the protein stability index was 2.43.
For AAGGVPGHGSNNGKTPVCHQCHKV [G8H], the protein stability index was 3.3.
In the case of AAGGVPGIGSNNGKTPVCHQCHKV [G8I], the protein stability index is reported as 3.48.
With AAGGVPGKGSNNGKTPVCHQCHKV [G8K] the protein stability index was 3.52.
Variant AAGGVPGLGSNNGKTPVCHQCHKV [G8L] has a protein stability index of 3.72.
AAGGVPGMGSNNGKTPVCHQCHKV [G8M] showed a protein stability index of 3.46.
In the case of AAGGVPGNGSNNGKTPVCHQCHKV [G8N], the protein stability index is reported as 3.14.
In the case of AAGGVPGPGSNNGKTPVCHQCHKV [G8P], the protein stability index is reported as 3.8.
Work on AAGGVPGQGSNNGKTPVCHQCHKV [G8Q] yielded a protein stability index of 3.87.
In the case of AAGGVPGRGSNNGKTPVCHQCHKV [G8R], the protein stability index is reported as 3.31.
In the case of AAGGVPGSGSNNGKTPVCHQCHKV [G8S], the protein stability index is reported as 2.9.
Variant AAGGVPGTGSNNGKTPVCHQCHKV [G8T] has a protein stability index of 4.16.
For AAGGVPGVGSNNGKTPVCHQCHKV [G8V], the protein stability index was 3.53.
Work on AAGGVPGWGSNNGKTPVCHQCHKV [G8W] yielded a protein stability index of 3.56.
AAGGVPGYGSNNGKTPVCHQCHKV [G8Y] showed a protein stability index of 2.96.
With AAGGVPGGCSNNGKTPVCHQCHKV [G9C] the protein stability index was 2.13.
Variant AAGGVPGGDSNNGKTPVCHQCHKV [G9D] has a protein stability index of 4.5.
For AAGGVPGGESNNGKTPVCHQCHKV [G9E], the protein stability index was 4.04.
With AAGGVPGGFSNNGKTPVCHQCHKV [G9F] the protein stability index was 2.39.
Work on AAGGVPGGHSNNGKTPVCHQCHKV [G9H] yielded a protein stability index of 3.21.
AAGGVPGGISNNGKTPVCHQCHKV [G9I] showed a protein stability index of 3.48.
AAGGVPGGKSNNGKTPVCHQCHKV [G9K] gave a protein stability index of 3.64.
With AAGGVPGGLSNNGKTPVCHQCHKV [G9L] the protein stability index was 3.19.
AAGGVPGGMSNNGKTPVCHQCHKV [G9M] gave a protein stability index of 3.22.
AAGGVPGGNSNNGKTPVCHQCHKV [G9N] gave a protein stability index of 3.21.
Work on AAGGVPGGPSNNGKTPVCHQCHKV [G9P] yielded a protein stability index of 3.69.
For AAGGVPGGQSNNGKTPVCHQCHKV [G9Q], the protein stability index was 3.6.
Variant AAGGVPGGRSNNGKTPVCHQCHKV [G9R] has a protein stability index of 3.06.
With AAGGVPGGSSNNGKTPVCHQCHKV [G9S] the protein stability index was 2.65.
In the case of AAGGVPGGTSNNGKTPVCHQCHKV [G9T], the protein stability index is reported as 2.79.
For AAGGVPGGVSNNGKTPVCHQCHKV [G9V], the protein stability index was 2.59.
AAGGVPGGWSNNGKTPVCHQCHKV [G9W] gave a protein stability index of 2.98.
AAGGVPGGYSNNGKTPVCHQCHKV [G9Y] showed a protein stability index of 3.56.
For AAGGVPGGGCNNGKTPVCHQCHKV [S10C], the protein stability index was 2.19.
In the case of AAGGVPGGGDNNGKTPVCHQCHKV [S10D], the protein stability index is reported as 3.96.
Work on AAGGVPGGGFNNGKTPVCHQCHKV [S10F] yielded a protein stability index of 2.02.
In the case of AAGGVPGGGHNNGKTPVCHQCHKV [S10H], the protein stability index is reported as 2.21.
Variant AAGGVPGGGINNGKTPVCHQCHKV [S10I] has a protein stability index of 2.37.
AAGGVPGGGKNNGKTPVCHQCHKV [S10K] showed a protein stability index of 3.18.
For AAGGVPGGGLNNGKTPVCHQCHKV [S10L], the protein stability index was 2.47.
Work on AAGGVPGGGNNNGKTPVCHQCHKV [S10N] yielded a protein stability index of 3.32.
For AAGGVPGGGPNNGKTPVCHQCHKV [S10P], the protein stability index was 2.9.
